Laboratory results reported in article PMC11467180.

Target: rA3GR8/E259A (Macaca mulatta (rhesus macaque), UniProt M1GSK9 1-138+=AEAG+147-383, E259A;internal_change)
Experiment: EMSA

Binder | Kd [nM]
TTTTGATTTT (ssDNA) [GA-DNA 10 nt] | 473 ± 95
TTTTAATTTT (ssDNA) [AA-DNA 10 nt] | 318 ± 64
